Assay results reported in patent publication US20140274782A1, “AFFINITY REAGENTS AND METHODS FOR DETECTION, PURIFICATION, AND PROTEOMIC ANALYSIS OF METHYLATED PROTEINS” (The Board of Trustees of the Leland Stanford Junior …, priority 2013, published 2014).

T1: G9a and GLP (Homo sapiens, UniProt Q96KQ7+Q9H9B1)
T1 sequence (Q96KQ7 2-1210 limits assumed): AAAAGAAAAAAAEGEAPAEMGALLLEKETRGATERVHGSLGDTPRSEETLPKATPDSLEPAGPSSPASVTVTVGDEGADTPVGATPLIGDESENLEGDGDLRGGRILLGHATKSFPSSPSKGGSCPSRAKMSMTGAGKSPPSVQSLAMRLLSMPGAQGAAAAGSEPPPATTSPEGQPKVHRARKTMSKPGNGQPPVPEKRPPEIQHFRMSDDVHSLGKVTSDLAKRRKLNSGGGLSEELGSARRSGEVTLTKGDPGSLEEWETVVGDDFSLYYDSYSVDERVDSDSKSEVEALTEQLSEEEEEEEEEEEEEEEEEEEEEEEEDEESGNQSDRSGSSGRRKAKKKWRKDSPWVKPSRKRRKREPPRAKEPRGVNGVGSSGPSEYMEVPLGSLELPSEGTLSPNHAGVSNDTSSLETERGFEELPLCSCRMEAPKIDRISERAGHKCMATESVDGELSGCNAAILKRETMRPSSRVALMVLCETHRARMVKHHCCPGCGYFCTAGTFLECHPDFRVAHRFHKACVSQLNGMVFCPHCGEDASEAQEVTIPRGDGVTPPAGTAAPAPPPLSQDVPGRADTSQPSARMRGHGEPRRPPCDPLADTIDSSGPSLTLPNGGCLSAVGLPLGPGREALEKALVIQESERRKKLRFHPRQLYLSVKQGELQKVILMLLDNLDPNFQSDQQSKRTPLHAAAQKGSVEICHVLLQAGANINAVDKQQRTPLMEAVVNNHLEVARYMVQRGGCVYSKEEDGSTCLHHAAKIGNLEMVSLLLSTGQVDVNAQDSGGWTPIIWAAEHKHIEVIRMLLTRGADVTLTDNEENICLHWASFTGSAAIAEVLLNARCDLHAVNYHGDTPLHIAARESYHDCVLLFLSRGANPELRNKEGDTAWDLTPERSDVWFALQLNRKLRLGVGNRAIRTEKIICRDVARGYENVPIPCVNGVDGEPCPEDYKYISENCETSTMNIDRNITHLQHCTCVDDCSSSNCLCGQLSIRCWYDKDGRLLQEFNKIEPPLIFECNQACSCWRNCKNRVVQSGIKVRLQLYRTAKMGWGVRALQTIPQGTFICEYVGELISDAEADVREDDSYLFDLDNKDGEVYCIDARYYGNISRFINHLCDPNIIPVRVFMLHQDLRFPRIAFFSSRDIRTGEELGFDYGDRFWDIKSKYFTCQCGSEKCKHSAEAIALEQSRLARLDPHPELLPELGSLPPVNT
T1 sequence (Q9H9B1 2-1298 limits assumed): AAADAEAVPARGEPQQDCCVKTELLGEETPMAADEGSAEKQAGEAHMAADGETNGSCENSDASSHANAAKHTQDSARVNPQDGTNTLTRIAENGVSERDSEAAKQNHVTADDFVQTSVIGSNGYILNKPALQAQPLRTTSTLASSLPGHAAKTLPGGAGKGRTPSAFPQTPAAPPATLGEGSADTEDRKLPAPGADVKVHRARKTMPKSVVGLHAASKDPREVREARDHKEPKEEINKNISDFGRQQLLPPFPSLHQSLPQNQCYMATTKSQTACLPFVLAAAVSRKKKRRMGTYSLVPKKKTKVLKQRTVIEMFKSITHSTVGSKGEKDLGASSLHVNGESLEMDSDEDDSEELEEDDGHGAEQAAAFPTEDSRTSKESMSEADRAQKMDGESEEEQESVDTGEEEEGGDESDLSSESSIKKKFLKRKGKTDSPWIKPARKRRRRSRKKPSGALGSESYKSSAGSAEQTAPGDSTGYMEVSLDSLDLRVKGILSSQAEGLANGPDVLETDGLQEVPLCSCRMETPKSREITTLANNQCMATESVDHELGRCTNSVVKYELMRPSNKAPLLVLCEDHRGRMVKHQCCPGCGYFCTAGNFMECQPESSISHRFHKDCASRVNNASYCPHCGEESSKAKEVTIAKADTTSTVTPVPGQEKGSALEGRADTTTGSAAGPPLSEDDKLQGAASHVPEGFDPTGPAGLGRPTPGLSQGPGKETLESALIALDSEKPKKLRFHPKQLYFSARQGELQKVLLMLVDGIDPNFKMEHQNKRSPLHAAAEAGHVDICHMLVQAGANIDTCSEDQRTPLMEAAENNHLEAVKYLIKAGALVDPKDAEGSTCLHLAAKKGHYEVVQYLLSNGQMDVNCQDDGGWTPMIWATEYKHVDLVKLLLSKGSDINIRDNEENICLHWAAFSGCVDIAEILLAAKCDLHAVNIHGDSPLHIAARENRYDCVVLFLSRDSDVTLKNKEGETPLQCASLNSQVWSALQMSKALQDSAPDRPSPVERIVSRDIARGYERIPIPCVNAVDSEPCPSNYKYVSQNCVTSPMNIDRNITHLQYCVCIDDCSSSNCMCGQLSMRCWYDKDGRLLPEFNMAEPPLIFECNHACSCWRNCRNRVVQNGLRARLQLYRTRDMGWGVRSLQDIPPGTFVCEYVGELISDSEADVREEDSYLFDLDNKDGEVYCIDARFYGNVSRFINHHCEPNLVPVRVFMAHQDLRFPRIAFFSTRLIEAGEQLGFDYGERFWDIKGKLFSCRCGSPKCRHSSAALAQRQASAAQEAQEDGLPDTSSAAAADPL


Tests used:
3×MBT domain of L3MBTL1 = assay: Triple SILAC pull-down, 3xMBT/3xMBTD355N ratio (cytoplasmic, nuclear and chromatin fractions of 293T cells); assay type: binding, human; settings: SILAC ratio 3xMBT vs 3xMBTD355N pull-down, 293T cells, all values in log base 2; for 3xMBT/D355N UNC Heavy: experiment with UNC0638 in heavy SILAC media; for 3xMBT/D355N UNC Light: experiment with UNC0638 in light SILAC media;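 on all read-outs here: proteins quantified with MaxQuant, requiring at least two unique peptides and quantification in both label directions, normalized to the mean of proteins from a digested loading control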
G9a and GLP = target: T1, G9a and GLP; assay: Triple SILAC pull-down after UNC0638 treatment of 293T cells, DMSO/UNC0638 ratio of protein captured by 3×MBT; assay type: cell-based; parameters: endogenous in cells; host or cells: HEK 293T; settings: all values in log base 2; for Relative to UNC0638 UNC Heavy / Relative to UNC0638 UNC Light: SILAC ratio DMSO relative to UNC0638, pull-down with 3xMBT; for Relative to UNC0638 UNC Heavy: UNC0638 in heavy SILAC media; for Relative to UNC0638 UNC Light: UNC0638 in light SILAC media; for Relative to UNC0638 Average: average of UNC Light and UNC Heavy experiments;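 on all read-outs here: mass spectrometry (Q-Exactive) SILAC quantitation, DMSO/UNC0638 ratio computed after subtracting 3×MBTD355N mutant pull-down background, only proteins with at least twofold 3×MBT over mutant signal considered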

Row | Molecule | 3xMBT/D355N UNC Heavy (3×MBT domain of L3MBTL1) [log base 2] | 3xMBT/D355N UNC Light (3×MBT domain of L3MBTL1) [log base 2] | Relative to UNC0638 UNC Heavy (G9a and GLP) [log base 2] | Relative to UNC0638 UNC Light (G9a and GLP) [log base 2] | Relative to UNC0638 Average (G9a and GLP) [log base 2]
1 | PUF60 (protein, UniProt Q9UHX1 1-559, looked up) Poly(U)-binding-splicing …: MATATIALQVNGQQGGGSEPAAAAAVVAAGDKWKPPQGTDSIKMENGQSTAAKLGLPPLTPEQQEALQKAKKYAMEQSIKSVLVKQTIAHQQQQLTNLQMAAVTMGFGDPLSPLQSMAAQRQRALAIMCRVYVGSIYYELGEDTIRQAFAPFGPIKSIDMSWDSVTMKHKGFAFVEYEVPEAAQLALEQMNSVMLGGRNIKVGRPSNIGQAQPIIDQLAEEARAFNRIYVASVHQDLSDDDIKSVFEAFGKIKSCTLARDPTTGKHKGYGFIEYEKAQSSQDAVSSMNLFDLGGQYLRVGKAVTPPMPLLTPATPGGLPPAAAVAAAAATAKITAQEAVAGAAVLGTLGTPGLVSPALTLAQPLGTLPQAVMAAQAPGVITGVTPARPPIPVTIPSVGVVNPILASPPTLGLLEPKKEKEEEELFPESERPEMLSEQEHMSISGSSARHMVMQKLLRKQESTVMVLRNMVDPKDIDDDLEGEVTEECGKFGAVNRVIIYQEKQGEEEDAEIIVKIFVEFSIASETHKAIQALNGRWFAGRKVVAEVYDQERFDNSDLSA | 1.71 | 2.61 | 0.03 | 0.07 | 0.05
2 | DNAJC9 (protein, UniProt Q8WXX5 1-260, looked up) DnaJ homolog subfamily C …: MGLLDLCEEVFGTADLYRVLGVRREASDGEVRRGYHKVSLQVHPDRVGEGDKEDATRRFQILGKVYSVLSDREQRAVYDEQGTVDEDSPVLTQDRDWEAYWRLLFKKISLEDIQAFEKTYKGSEEELADIKQAYLDFKGDMDQIMESVLCVQYTEEPRIRNIIQQAIDAGEVPSYNAFVKESKQKMNARKRRAQEEAKEAEMSRKELGLDEGVDSLKAAIQSRQKDRQKEMDNFLAQMEAKYCKSSKGGGKKSALKKEKK | 2.56 | 1.85 | 0.09 | −0.02 | 0.04
3 | MARS (protein, UniProt P56192 1-900, looked up) Methionine--tRNA ligase, …: MRLFVSDGVPGCLPVLAAAGRARGRAEVLISTVGPEDCVVPFLTRPKVPVLQLDSGNYLFSTSAICRYFFLLSGWEQDDLTNQWLEWEATELQPALSAALYYLVVQGKKGEDVLGSVRRALTHIDHSLSRQNCPFLAGETESLADIVLWGALYPLLQDPAYLPEELSALHSWFQTLSTQEPCQRAAETVLKQQGVLALRPYLQKQPQPSPAEGRAVTNEPEEEELATLSEEEIAMAVTAWEKGLESLPPLRPQQNPVLPVAGERNVLITSALPYVNNVPHLGNIIGCVLSADVFARYSRLRQWNTLYLCGTDEYGTATETKALEEGLTPQEICDKYHIIHADIYRWFNISFDIFGRTTTPQQTKITQDIFQQLLKRGFVLQDTVEQLRCEHCARFLADRFVEGVCPFCGYEEARGDQCDKCGKLINAVELKKPQCKVCRSCPVVQSSQHLFLDLPKLEKRLEEWLGRTLPGSDWTPNAQFITRSWLRDGLKPRCITRDLKWGTPVPLEGFEDKVFYVWFDATIGYLSITANYTDQWERWWKNPEQVDLYQFMAKDNVPFHSLVFPCSALGAEDNYTLVSHLIATEYLNYEDGKFSKSRGVGVFGDMAQDTGIPADIWRFYLLYIRPEGQDSAFSWTDLLLKNNSELLNNLGNFINRAGMFVSKFFGGYVPEMVLTPDDQRLLAHVTLELQHYHQLLEKVRIRDALRSILTISRHGNQYIQVNEPWKRIKGSEADRQRAGTVTGLAVNIAALLSVMLQPYMPTVSATIQAQLQLPPPACSILLTNFLCTLPAGHQIGTVSPLFQKLENDQIESLRQRFGGGQAKTSPKPAVVETVTTAKPQQIQALMDEVTKQGNIVRELKAQKADKNEVAAEVAKLLDLKKQLAVAEGKPPEAPKGKKKK | 1.87 | 1.56 | 0.15 | −0.08 | 0.03
4 | XPC (protein, UniProt Q01831 2-940, looked up) DNA repair protein …: ARKRAAGGEPRGRELRSQKSKAKSKARREEEEEDAFEDEKPPKKSLLSKVSQGKRKRGCSHPGGSADGPAKKKVAKVTVKSENLKVIKDEALSDGDDLRDFPSDLKKAHHLKRGATMNEDSNEEEEESENDWEEVEELSEPVLGDVRESTAFSRSLLPVKPVEIEIETPEQAKTRERSEKIKLEFETYLRRAMKRFNKGVHEDTHKVHLLCLLANGFYRNNICSQPDLHAIGLSIIPARFTRVLPRDVDTYYLSNLVKWFIGTFTVNAELSASEQDNLQTTLERRFAIYSARDDEELVHIFLLILRALQLLTRLVLSLQPIPLKSATAKGKKPSKERLTADPGGSSETSSQVLENHTKPKTSKGTKQEETFAKGTCRPSAKGKRNKGGRKKRSKPSSSEEDEGPGDKQEKATQRRPHGRERRVASRVSYKEESGSDEAGSGSDFELSSGEASDPSDEDSEPGPPKQRKAPAPQRTKAGSKSASRTHRGSHRKDPSLPAASSSSSSSKRGKKMCSDGEKAEKRSIAGIDQWLEVFCEQEEKWVCVDCVHGVVGQPLTCYKYATKPMTYVVGIDSDGWVRDVTQRYDPVWMTVTRKCRVDAEWWAETLRPYQSPFMDREKKEDLEFQAKHMDQPLPTAIGLYKNHPLYALKRHLLKYEAIYPETAAILGYCRGEAVYSRDCVHTLHSRDTWLKKARVVRLGEVPYKMVKGFSNRARKARLAEPQLREENDLGLFGYWQTEEYQPPVAVDGKVPRNEFGNVYLFLPSMMPIGCVQLNLPNLHRVARKLDIDCVQAITGFDFHGGYSHPVTDGYIVCEEFKDVLLTAWENEQAVIERKEKEKKEKRALGNWKLLAKGLLIRERLKRRYGPKSEAAAPHTDAGGGLSSDEEEGTSSQAEAARILAASWPQNREDEEKQKLKGGPKKTKREKKAAASHLFPFEQL | 2.62 | 3.99 | 0.03 | 0.03 | 0.03
